Measured values reported in patent US20240100174A1, “PROTEIN-PEG INTERACTIONS THAT REDIRECT THE THERMAL UNFOLDING PATHWAY OF PEGYLATED HUMAN GALECTIN-3C” (UNIVERSITY OF FLORIDA RESEARCH FOUNDATION, INCORPORATED, priority 2022, published 2024).
Several values for one entry are separate records, joined by “and”; a condition that tells them apart may be missing. Identical values can stand only once.

Key:
[1] = Equilibrium binding of lactose, intrinsic tryptophan fluorescence; conditions: ligand lactose; average ± standard deviation of 3 replicated experiments; PBS; read-out: Kd (equilibrium binding constant)
Method: (§1) Equilibrium binding data were recorded using a protocol adapted from a previous procedure from Restuccia, et al (38). Intrinsic tryptophan fluorescence was monitored using a Cary Eclipse™ Fluorescence Spectrophotometer (Agilent) operating with Cary Eclipse™ WinFLR software version 1.2 in ‘Scan Mode’. The instrument method parameters were as follows: excitation wavelength was 280 nm, the acquisition range was from 290 nm to 440 nm and the photomultiplier tube sensitivity was set to ‘medium’. Samples were prepared at final concentrations of 1 μM for Gal3C[T243C] or 5 μM Gal3C[T243C]-PEG in 800 ∥L, in PBS for each titration. Samples were pipetted into 0.7×0.7 cm quartz cuvettes with a micro stir bar. Each new experiment was first zeroed against PBS to remove the small background signal from the buffer. […]
(§2) The binding affinity and specificity of Gal3C[T243C]-PEG was compared with Gal3C[T243C] and Gal3C (see FIG. 1C, FIG. 9 and FIG. 10) via an inherent tryptophan fluorescence assay optimized to ensure equilibrium binding conditions. Binding of lactose or LacNac quenches the fluorescence of W181, located adjacent to the bound sugar in the crystal structure of Gal3C, thus permitting direct measurement of ligand Kd values.

[2] = Equilibrium binding of LacNac, intrinsic tryptophan fluorescence; conditions: ligand LacNac; average ± standard deviation of 3 replicated experiments; PBS; read-out: Kd (equilibrium binding constant)
Method: as §1
as §2, with “values. […]” for “values.”

[3] = Variable temperature circular dichroism (CD) thermal unfolding; format: physicochemical; conditions: for fitted melting temperature (Tm): CD at 220 nm
Method: CD spectroscopic data were recorded with an Applied Photophysics™ Chirascan spectrophotometer equipped with a Quantum Northwestern Peltier temperature control device and operating with Chirascan v4.7.0 and Pro-Data™ Viewer software. Samples were prepared in PBS at final concentrations of 10 μM. All samples were contained in 2 mm tapered quartz cuvettes, and a temperature probe was inserted through the cuvette cap to monitor the sample temperature in real time. The following parameters were used for constant temperature experiments: CD signal measured in millidegrees, bandwidth of 1.0 nm, wavelength scan from 200-280 nm, step size of 2.0 nm. Spectra were background subtracted against the sample buffer. For thermal unfolding experiments, a linear thermal ramp was applied from 30° C. to 90° C. at 1° C. per minute. All spectra were measured in triplicate, and data were normalized to account for slight differences in protein concentration.
To calculate melting temperatures of unconjugated Gal3C, Gal3C[T243C], and Gal3C[T243C] variants containing lysine replacements, the normalized data were fit to a Boltzmann sigmoidal function in Origin v8.5. For the data fitting, no parameters were fixed, and the ‘x’ parameter defined as the center of the data was interpreted as the melting temperature (Tm). Variable temperature CD data of PEGylated Gal3C[T243C] and Gal3C[T243C] variants were fit with a sum of two Boltzmann sigmoidal functions, as shown below:
where ‘A1’, ‘A2’, and ‘A3’ represent three plateaus of the CD signal, ‘dx1’ and ‘dx2’ are the change in x between the plateaus for each melting transition, and ‘x1’ and ‘x2’ are the two Tm values extracted by the fit for the first and second unfolding transitions, respectively. Because the third plateau, A3, occurred at temperatures higher than the experimentally accessible range, this value was estimated. A single wavelength for plotting on the y-axis was selected by calculating the wavelength of greatest CD signal change for each PEGylated construct.
To record a CD spectrum of Gal3C[T243C] with free PEG, a stock solution of methoxy-PEG (mPEG) in 1×PBS was added immediately before the experiment to a solution containing protein (20 μM, 1 ×PBS) to a final concentration of 22 μM mPEG. All thermal melt parameters were the same as listed in the above described experiments.
CD spectroscopic data were recorded with an Applied Photophysics Chirascan spectrophotometer equipped with a Quantum Northwestern Peltier temperature control device and operating with Chirascan v4.7.0 and Pro-Data Viewer software, following procedures used in our previous study.^4 Spectra were background subtracted against the sample buffer. For thermal unfolding experiments, a linear thermal ramp was applied from 30° C. to 90° C. at 1° C. per minute with samples concentrated to 10 μM in PBS. All spectra were measured in triplicate, and data were normalized to account for slight differences in protein concentration.
Full wavelength (200-280 nm) CD spectra for each construct (FIG. 43) were used to calculate a wavelength of greatest change (222 or 224 nm) to create single wavelength CD vs. temperature plots (FIG. 30H-J and FIG. 31F-G). The single wavelength CD signal vs. temperature plot of Gal3C[T243C] used data acquired at 220 nm, which was the wavelength of greatest change for the unmodified protein. To calculate melting temperatures, the normalized data were fit to a Boltzmann sigmoidal function in Origin v8.5. For the data fitting, no parameters were fixed, and the ‘x’ parameter defined as the center of the data was interpreted as the melting temperature (Tm).

Kd [1]: 413 ± 102 µM
Kd [2]: 230 ± 56.5 µM
B1: Gal3C[T243C]: Gal3C variant with a single extrinsic cysteine at position 243; SEQ ID NO: 11 (protein)
chain: MAGPLIVPYNLPLPGGVVPRMLITILGTVKPNANRIALDFQRGNDVAFHFNPRFNENNRRVIVCNTKLDNNWGREERQSVFPFESGKPFKIQVLVEPDHFKVAVNDAHLLQYNHRVKKLNEISKLGISGDIDLTSASYCMILEHHHHHH
fitted melting temperature (Tm) ([3]; 20 μM protein in the absence of free PEG-OH): 57.5 °C
fitted melting temperature (Tm) ([3]; 20 μM protein in the presence of 22 μM free PEG-OH): 57.7 °C
Tm1 ± StDev ([3]; normalized CD at 220 nm vs. temperature, 3 replicates averaged, ramp 30-90° C. at 1° C. per minute): 58.1 °C and 58.1 ± 0.5 °C
thermal unfolding behaviour / formation of unfolding intermediate ([3]; result in words, for polymer conjugates the selected SEC fractions): single cooperative unfolding transition
Tm / Tm1 ([3]; values of Summary of Results, Tm for unconjugated protein, Tm1 for PEG conjugate): 58.0 °C
